# Test results published in article PMC3969221, “Bacillus thuringiensis Cry1A toxins are versatile proteins with multiple modes of action: two distinct pre-pores are involved in toxicity” (Biochemical Journal, 2014).
# B1: trypsin-activated Cry1Ab toxin (domain or fragment)
# chain: not shown
# modifications: Wild-type toxin cut from the protoxin by trypsin. Limits are not given; the conventional Cry1A trypsin core is used (cut after R28, C-terminal end near residue 619). Subspecies is not printed …
# Molecular target: T1, Manduca sexta cadherin protein fragment (CR7–CR12) (Manduca sexta)
# T1 construct: Manduca sexta cadherin receptor, fragment CR7–CR12, residues 810–1480; also called cadherin fragment; cadherin receptor fragment
# Experiment: ELISA; 1 μg of cadherin fragment coated per well; toxin or protoxin dilutions in PBS, 1 h at 37°C; detected with polyclonal anti-Cry1Ab antibody; Scatchard analysis; apparent Kd
# Conditions: both partners purified
binder,measurement,value
B1,Kd,3.3 ± 0.6 nM
